Assay results as given in patent US20110021757A1 (NATIONAL INSTITUTE OF AGROBIOLOGICAL SCIENCES, published 2011).

Target: T1, human transferrin (human, UniProt P02787 20-698)
T1 construct: The assay paragraphs say only 'transferrin (Biogenesis)'; also called transferrin (Biogenesis); antigen
Test: ELISA, transferrin-coated plate, silk gland extract, anti-mouse Ig-HRP detection
Description: Measurement of the activity of a recombinant antibody against an antigen by enzyme-linked immunosorbent assay (ELISA) was carried out by the following procedure. […] This was homogenized using a glass homogenizer and centrifuged at 14,000 rpm for 20 minutes, and then the supernatant was diluted five times (40 mg/ml) and ten times ([…]) in Tris buffer. These samples and the undiluted sample (original concentration: 200 mg/ml) were used as samples for ELISA measurement. Furthermore, similar procedures were used to prepare samples of the Ser1GAL4 strain silkworms for ELISA measurement as a negative control. 100 μl of the samples for ELISA measurement thus prepared were dispensed into a microtiter plate (NUNC) presensitized with 100 μg/well of transferrin (Biogenesis), and the plate was shaken at room temperature for two hours. Next, the ELISA measurement samples were removed from the wells, and the wells were washed three times with 200 μl of PBS-T. Into each well, 100 μl of a solution prepared in advance by diluting a rabbit anti-mouse Ig-HRP-labeled antibody 100-fold with PBS (150 mM NaCl, 10 mM phosphate buffer, pH 7.4) was dispensed, and the plate was shaken at room temperature for six hours. […] After that, the absorbance at 450 nm was measured using a model 550 microplate reader (BioRad).

T1 sequence (P02787 20-698 limits assumed): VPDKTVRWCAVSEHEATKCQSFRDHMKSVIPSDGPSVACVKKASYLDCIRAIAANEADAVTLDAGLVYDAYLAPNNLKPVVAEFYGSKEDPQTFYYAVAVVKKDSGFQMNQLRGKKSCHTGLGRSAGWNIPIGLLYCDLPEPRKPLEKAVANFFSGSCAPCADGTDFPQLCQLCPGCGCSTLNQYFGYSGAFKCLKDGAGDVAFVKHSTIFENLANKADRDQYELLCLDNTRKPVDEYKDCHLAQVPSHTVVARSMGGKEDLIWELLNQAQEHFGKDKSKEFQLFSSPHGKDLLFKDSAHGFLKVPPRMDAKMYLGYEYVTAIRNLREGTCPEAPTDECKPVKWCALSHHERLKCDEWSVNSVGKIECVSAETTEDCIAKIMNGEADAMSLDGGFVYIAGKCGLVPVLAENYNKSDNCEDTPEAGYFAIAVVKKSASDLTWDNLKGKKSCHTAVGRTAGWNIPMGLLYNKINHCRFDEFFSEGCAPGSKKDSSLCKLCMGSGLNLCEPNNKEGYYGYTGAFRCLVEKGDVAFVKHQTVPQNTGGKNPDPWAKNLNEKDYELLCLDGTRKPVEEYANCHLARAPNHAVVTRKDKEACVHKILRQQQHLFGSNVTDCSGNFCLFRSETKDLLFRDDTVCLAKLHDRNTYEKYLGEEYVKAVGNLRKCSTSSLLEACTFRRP

B1: scFv antibody from a mouse anti-human transferrin antibody (anti-transferrin scFv antibody) (scFv)
scFv: LEVQLQESGPDLVKPSQSLSLTCTVTGYSITSGYSWHWIRQFPENKLEWLGYIHSSGATNYSPSLKSRFSITRDTSKNQFFLQLNSVTTEDTATYYCARDGYSPPYAMDYWGQGTTVTVSSGGGGSGGGGSGGGGSDIELTQSPSSLAVSVGEKVTMTCKSSQSLLYSTNQKNYLAWYQQKPGQSPKLLIYWASTRESGVPDRFTGSGSGTDFTLTISSVKAEDLSVYYCQQYYSYPPTFGSGTKLEIK
notes: The signal piece is left out here as a secretion signal; Tested as a crude middle silk gland extract of Ser1GAL4/UASFvaTf silkworms, not purified; also called aTf; FvaTf
- binding result: binds
